Reference: paper PMC10786891, “Massively parallel profiling of RNA-targeting CRISPR-Cas13d”

T1: EsCas13d, nuclease-dead (Eubacterium siraeum, UniProt B0MS50, R295A;H300A;R849A;H854A)
T1 sequence: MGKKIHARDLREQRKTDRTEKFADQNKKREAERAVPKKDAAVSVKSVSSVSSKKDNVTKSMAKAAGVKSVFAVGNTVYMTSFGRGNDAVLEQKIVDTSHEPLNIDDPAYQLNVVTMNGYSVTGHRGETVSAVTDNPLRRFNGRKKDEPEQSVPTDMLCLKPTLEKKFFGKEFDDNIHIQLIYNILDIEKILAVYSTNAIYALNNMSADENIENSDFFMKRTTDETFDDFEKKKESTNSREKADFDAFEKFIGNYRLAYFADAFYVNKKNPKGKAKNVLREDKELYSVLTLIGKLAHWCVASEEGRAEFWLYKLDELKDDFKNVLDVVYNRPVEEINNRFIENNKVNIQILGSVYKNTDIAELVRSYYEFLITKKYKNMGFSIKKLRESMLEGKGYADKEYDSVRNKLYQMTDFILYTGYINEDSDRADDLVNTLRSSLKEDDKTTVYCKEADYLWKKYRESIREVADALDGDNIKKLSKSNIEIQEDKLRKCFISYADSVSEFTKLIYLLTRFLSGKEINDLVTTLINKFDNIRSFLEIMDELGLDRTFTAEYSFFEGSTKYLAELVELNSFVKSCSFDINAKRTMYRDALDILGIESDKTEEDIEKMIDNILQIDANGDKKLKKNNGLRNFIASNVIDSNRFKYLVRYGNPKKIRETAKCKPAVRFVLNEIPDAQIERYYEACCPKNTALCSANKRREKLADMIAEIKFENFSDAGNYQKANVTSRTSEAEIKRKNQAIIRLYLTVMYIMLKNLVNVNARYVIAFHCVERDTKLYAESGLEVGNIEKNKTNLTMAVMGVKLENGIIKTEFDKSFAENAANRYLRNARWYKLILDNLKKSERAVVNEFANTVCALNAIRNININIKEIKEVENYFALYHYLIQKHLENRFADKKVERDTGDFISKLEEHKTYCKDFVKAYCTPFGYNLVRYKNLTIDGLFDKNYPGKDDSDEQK

B1: target 3 insG 3' of 2,insA 3' of 2 (mixed)
RNA 1: CACCCGUGCAAAAUUGCAGGGGUCUAAAACGACCUGAAUAUUUCAGAUCAAA
RNA 2: GGGAAUGGAUCCACAUCUACGAAUUCGUUUUUGAUCUGAAAUAUUCAGGUGACUGCAGAUCGGAAGAGCACACGU
B2: target 3 complement block 5-9 (mixed)
RNA 1: CACCCGUGCAAAAUUGCAGGGGUCUAAAACGACCUGAAUAUUUCAGAUCAAA
RNA 2: GGGAAUGGAUCCACAUCUACGAAUUCGUUUUUGAUCUGAAAUUAAGUGGUCUGCAGAUCGGAAGAGCACACGU
B3: target 3 insG 3' of 5,insC 3' of 3 (mixed)
RNA 1: CACCCGUGCAAAAUUGCAGGGGUCUAAAACGACCUGAAUAUUUCAGAUCAAA
RNA 2: GGGAAUGGAUCCACAUCUACGAAUUCGUUUUUGAUCUGAAAUAUUCAGGGCUCUGCAGAUCGGAAGAGCACACGU
B4: target 3 insG 3' of 22,insG 3' of 5 (mixed)
RNA 1: CACCCGUGCAAAAUUGCAGGGGUCUAAAACGACCUGAAUAUUUCAGAUCAAA
RNA 2: GGGAAUGGAUCCACAUCUACGAAUUCGUUUGUUGAUCUGAAAUAUUCAGGGUCUGCAGAUCGGAAGAGCACACGU
B5: target 3 insG 3' of 5,insU 3' of 4 (mixed)
RNA 1: CACCCGUGCAAAAUUGCAGGGGUCUAAAACGACCUGAAUAUUUCAGAUCAAA
RNA 2: GGGAAUGGAUCCACAUCUACGAAUUCGUUUUUGAUCUGAAAUAUUCAGGUGUCUGCAGAUCGGAAGAGCACACGU
B6: target 3 G4C,U7G (mixed)
RNA 1: CACCCGUGCAAAAUUGCAGGGGUCUAAAACGACCUGAAUAUUUCAGAUCAAA
RNA 2: GGGAAUGGAUCCACAUCUACGAAUUCGUUUUUGAUCUGAAAUAUGCACGUCUGCAGAUCGGAAGAGCACACGU
B7: target 3 U2A,U21A (mixed)
RNA 1: CACCCGUGCAAAAUUGCAGGGGUCUAAAACGACCUGAAUAUUUCAGAUCAAA
RNA 2: GGGAAUGGAUCCACAUCUACGAAUUCGUUUAUGAUCUGAAAUAUUCAGGACUGCAGAUCGGAAGAGCACACGU
B8: target 3 insA 3' of 7,insA 3' of 3 (mixed)
RNA 1: CACCCGUGCAAAAUUGCAGGGGUCUAAAACGACCUGAAUAUUUCAGAUCAAA
RNA 2: GGGAAUGGAUCCACAUCUACGAAUUCGUUUUUGAUCUGAAAUAUUACAGGAUCUGCAGAUCGGAAGAGCACACGU
B9: target 3 insU 3' of 11 (mixed)
RNA 1: CACCCGUGCAAAAUUGCAGGGGUCUAAAACGACCUGAAUAUUUCAGAUCAAA
RNA 2: GGGAAUGGAUCCACAUCUACGAAUUCGUUUUUGAUCUGAAAUUAUUCAGGUCUGCAGAUCGGAAGAGCACACGU
B10: target 3 A5C,C6G (mixed)
RNA 1: CACCCGUGCAAAAUUGCAGGGGUCUAAAACGACCUGAAUAUUUCAGAUCAAA
RNA 2: GGGAAUGGAUCCACAUCUACGAAUUCGUUUUUGAUCUGAAAUAUUGCGGUCUGCAGAUCGGAAGAGCACACGU
B11: target 3 G3U,U7G (mixed)
RNA 1: CACCCGUGCAAAAUUGCAGGGGUCUAAAACGACCUGAAUAUUUCAGAUCAAA
RNA 2: GGGAAUGGAUCCACAUCUACGAAUUCGUUUUUGAUCUGAAAUAUGCAGUUCUGCAGAUCGGAAGAGCACACGU
B12: target 3 insG 3' of 8,insU 3' of 5 (mixed)
RNA 1: CACCCGUGCAAAAUUGCAGGGGUCUAAAACGACCUGAAUAUUUCAGAUCAAA
RNA 2: GGGAAUGGAUCCACAUCUACGAAUUCGUUUUUGAUCUGAAAUAUGUCAUGGUCUGCAGAUCGGAAGAGCACACGU
B13: target 3 insU 3' of 22,insC 3' of 4 (mixed)
RNA 1: CACCCGUGCAAAAUUGCAGGGGUCUAAAACGACCUGAAUAUUUCAGAUCAAA
RNA 2: GGGAAUGGAUCCACAUCUACGAAUUCGUUUUUUGAUCUGAAAUAUUCAGCGUCUGCAGAUCGGAAGAGCACACGU
B14: target 3 U2G,U7C (mixed)
RNA 1: CACCCGUGCAAAAUUGCAGGGGUCUAAAACGACCUGAAUAUUUCAGAUCAAA
RNA 2: GGGAAUGGAUCCACAUCUACGAAUUCGUUUUUGAUCUGAAAUAUCCAGGGCUGCAGAUCGGAAGAGCACACGU
B15: target 3 C1G,A9C (mixed)
RNA 1: CACCCGUGCAAAAUUGCAGGGGUCUAAAACGACCUGAAUAUUUCAGAUCAAA
RNA 2: GGGAAUGGAUCCACAUCUACGAAUUCGUUUUUGAUCUGAAAUCUUCAGGUGUGCAGAUCGGAAGAGCACACGU
B16: target 3 insC 3' of 11,insA 3' of 2 (mixed)
RNA 1: CACCCGUGCAAAAUUGCAGGGGUCUAAAACGACCUGAAUAUUUCAGAUCAAA
RNA 2: GGGAAUGGAUCCACAUCUACGAAUUCGUUUUUGAUCUGAAACUAUUCAGGUACUGCAGAUCGGAAGAGCACACGU
B17: target 3 U2C,U22A (mixed)
RNA 1: CACCCGUGCAAAAUUGCAGGGGUCUAAAACGACCUGAAUAUUUCAGAUCAAA
RNA 2: GGGAAUGGAUCCACAUCUACGAAUUCGUUAUUGAUCUGAAAUAUUCAGGCCUGCAGAUCGGAAGAGCACACGU
B18: target 3 G4A,U7C (mixed)
RNA 1: CACCCGUGCAAAAUUGCAGGGGUCUAAAACGACCUGAAUAUUUCAGAUCAAA
RNA 2: GGGAAUGGAUCCACAUCUACGAAUUCGUUUUUGAUCUGAAAUAUCCAAGUCUGCAGAUCGGAAGAGCACACGU
B19: target 3 A11C,G14U (mixed)
RNA 1: CACCCGUGCAAAAUUGCAGGGGUCUAAAACGACCUGAAUAUUUCAGAUCAAA
RNA 2: GGGAAUGGAUCCACAUCUACGAAUUCGUUUUUGAUCUUAACUAUUCAGGUCUGCAGAUCGGAAGAGCACACGU
B20: target 3 A13G,A18G (mixed)
RNA 1: CACCCGUGCAAAAUUGCAGGGGUCUAAAACGACCUGAAUAUUUCAGAUCAAA
RNA 2: GGGAAUGGAUCCACAUCUACGAAUUCGUUUUUGGUCUGGAAUAUUCAGGUCUGCAGAUCGGAAGAGCACACGU
B21: target 3 insA 3' of 8 (mixed)
RNA 1: CACCCGUGCAAAAUUGCAGGGGUCUAAAACGACCUGAAUAUUUCAGAUCAAA
RNA 2: GGGAAUGGAUCCACAUCUACGAAUUCGUUUUUGAUCUGAAAUAUAUCAGGUCUGCAGAUCGGAAGAGCACACGU
B22: target 1 U11G,A14G (mixed)
RNA 1: CACCCGUGCAAAAAUGCAGGGGUCUAAAACUGAGCGGAUAACCUCUCUAUGG
RNA 2: GGGAAUGGAUCCACAUCUACGAAUUCGUACCAUAGAGGGGGUAUCCGCUCACCGAGAUCGGAAGAGCACACGU
B23: target 1 U3A,C6U (mixed)
RNA 1: CACCCGUGCAAAAAUGCAGGGGUCUAAAACUGAGCGGAUAACCUCUCUAUGG
RNA 2: GGGAAUGGAUCCACAUCUACGAAUUCGUACCAUAGAGAGGUUAUCUGCACACCGAGAUCGGAAGAGCACACGU
B24: target 1 insC 3' of 8,insU 3' of 7 (mixed)
RNA 1: CACCCGUGCAAAAAUGCAGGGGUCUAAAACUGAGCGGAUAACCUCUCUAUGG
RNA 2: GGGAAUGGAUCCACAUCUACGAAUUCGUACCAUAGAGAGGUUAUCCUCGCUCACCGAGAUCGGAAGAGCACACGU

Target: T1, EsCas13d, nuclease-dead
Assay: crRNA (strand 1, pre-loaded); Mg2+; 40 mM Tris-HCl pH 7.5, 150 mM NaCl, 6 mM MgCl2, 1 mM DTT, 0.1% Tween-20, 0.2 mg/ml BSA; 25 C; 10 min per concentration, then washed
Conditions: tags: His6-TwinStrep-SUMO cleaved; N-terminal SNAP kept (SNAP-Surface 488); label: 3' end held by stalled T7 RNA polymerase

| Binder | Kd [nM] |
| --- | --- |
| B1 | 20.3 ± 2.6 |
| B2 | 90 ± 9.5 |
| B3 | 76 ± 12.5 |
| B4 | 41.5 ± 18 |
| B5 | 20.4 ± 1.8 |
| B6 | 44.1 ± 4.1 |
| B7 | 39.5 ± 6 |
| B8 | 37 ± 4.5 |
| B9 | 81 ± 31 |
| B10 | 53.5 ± 5.5 |
| B11 | 33.1 ± 4.2 |
| B12 | 31.7 ± 2.8 |
| B13 | 19.5 ± 4.5 |
| B14 | 28 ± 4.5 |
| B15 | 54 ± 18 |
| B16 | 45.5 ± 11.5 |
| B17 | 77.5 ± 14 |
| B18 | 71 ± 12.5 |
| B19 | 56.5 ± 27 |
| B20 | ~100 |
| B21 | 50.5 ± 10 |
| B22 | 22.1 ± 1.3 |
| B23 | 5.27 ± 0.27 |
| B24 | 13.6 ± 1.1 |
